Measurements published in patent US12295997B2, “Prostate neoantigens and their uses” (Janssen Biotech, Inc., priority 2020, dated 2025).

B1: P19 (peptide, listed as Homo sapiens)
chain: WTPIPVLTRWPLPHPPPWRRATSCRMARSSPSATSGSSVRRRCSSLPSWVWNLAASTRPRSTPS

Target: HLA-B*07:02 (Homo sapiens, UniProt P01889)
Test: In vitro binding of neoantigens to class I MHC (UV peptide exchange, HLA class I ELISA)
Settings: 100% = same binding as positive control peptide
Protocol: The 9 mer peptides identified by bioinformatics analysis were analyzed for their binding propensities to 6 common HLA class I alleles (HLA-A*01:01, A*02:01, A*03:01, A*24:02, B*07:02, B*08:01). The principle of the method is briefly described below and consists of two parts, one involving exchange of peptide with a positive control induced by Ultraviolet (UV) radiation, and the second is an enzyme immunoassay to detect stable HLA-peptide and empty HLA complexes.
HLA-bound peptides are critical for the stability of the HLA complex. A conditional HLA class I complex was stabilized by an UV-labile peptide utilizing a different peptide (Pos) for each HLA (Pos: HLA-A*01:01: […](SEQ ID NO: 409), HLA-A*02:01: […] (SEQ ID NO: 410), HLA-A*03:01: […] (SEQ ID NO: 411), HLA-A*24:02: […] (SEQ ID NO: 412), HLA-B*07:02: […] (SEQ ID NO: 413), HLA-B*08:01: […] (SEQ ID NO: 414), which could be cleaved by UV irradiation when bound to the HLA molecule. Upon cleavage, the resulting peptide fragments dissociated from the HLA class I complex since their length was insufficient to bind stably to HLA. Under the conditions in which peptide cleavage was performed (neutral pH, on melting ice), the peptide-free HLA complex remained stable.
The exchange efficiency between the peptide of interest and Pos was analyzed using an HLA class I ELISA. The combined technologies allowed the identification of ligands for an HLA molecule of interest which are potentially immunogenic.
Exchange control peptide Pos was a high affinity binder to the relevant HLA class I allele while exchange control peptide Neg was a non-binder. The UV control represented UV-irradiation of conditional HLA class I complex in the absence of a rescue peptide.
The HLA class I ELISA is an enzyme immunoassay based on the detection of beta2-microglobulin (B2M) of (peptide-stabilized) HLA class I complexes. To this end streptavidin was bound onto polystyrene microtiter wells. After washing and blocking, HLA complex present in exchange reaction mixtures or ELISA controls was captured by the streptavidin on the microtiter plate via its biotinylated heavy chain. Non-bound material was removed by washing. Subsequently, horseradish peroxidase (HRP)-conjugated antibody to human B2M was added. The HRP-conjugated antibody binds only to an intact HLA complex present in the microtiter well because unsuccessful peptide exchange results in disintegration of the original UV-sensitive HLA complex upon UV illumination. In the latter case B2M was removed during the washing step. After removal of non-bound HRP conjugate by washing, a substrate solution was added to the wells. A coloured product formed in proportion to the amount of intact HLA complex present in the samples. After the reaction was terminated by the addition of a stop solution, absorbance was measured in a microtiter plate reader. The absorbance was normalized to the absorbance of an exchange control peptide (represents 100%). Suboptimal HLA binding of peptides with a moderate to low affinity for HLA class I molecules can also be detected by this ELISA technique (Rodenko, B et al. (2006) Nature Protocols 1: 1120-32).
Peptides that had 10% or greater exchange efficiency in one of the 6 HLA alleles were considered for further immunogenicity testing and analysis.
Binding of select neoepitopes to HLA-A*01:01, HLA-A*02:01, HLA-A*03:01, HLAA*24:02, HLAAB*07:02 and HLA-B*08:01 was evaluated using the assay described in Example 1. […] As a criterion for further evaluation, peptides with an exchange rate of at least 10% with the corresponding Pos peptide for at least one of the 6 HLA alleles that we considered for further evaluation. The exchange rates with the allele specific Pos peptides, of the 24 neoantigens so identified are summarized below in Table 17. Higher percentages correspond to stronger binding to the HLA allele. […]

Row | Molecule | Exchange rate with allele specific Pos peptide, HLA-B*07:02 [%]
1 | P46 (DDRNTFDIVWWCPMSRLRLALTVPPSTTTTCVTVPAWAA; listed as Homo sapiens) [Peptide P46] | 64.8
2 | P56 (PKSEVRAKCKFSILNAK; listed as Homo sapiens) [Peptide P56] | 82.5
3 | P60 (CYLRRQKRLKCEKQPGA; listed as Homo sapiens) [Peptide P60] | 6.1
4 | P73 (DSSGNLLERNSFEVRV; listed as Homo sapiens) [Peptide P73] | 8.7
5 | P97 (GYLRMQGLMAQRLLLR; listed as Homo sapiens) [Peptide P97] | 7
6 | P98: neoantigen 9 mer fragment used for PBMC stimulation (FIG. 5D) (IVWWCPMSR; listed as Homo sapiens) [Neoantigen P98] | 6.7
7 | YEAGMTLGEKFRVGNCKHLKMTRP (listed as Homo sapiens) [Neoantigen P82] | 12.9
8 | YEAGMTLGGKILFFLFLLLPLSPFSLIF (listed as Homo sapiens) [Neoantigen P87] | 5
9 | B1 | 91.3
